Common to all, as to experiment: FortéBio biosensor (biolayer interferometry), HA0 protein
The target in assay [1] is HA0 protein from the H3 clade (influenza A virus, H3 clade (strain not stated)).
In assay [2] the target is HA0 protein from the H5 clade (influenza A virus, H5 clade (strain not stated)).
The target in assay [3] is HA0 protein of the H1 clade (influenza A virus, H1 clade (strain not stated)).
In assay [4] the target is HA0 protein from the H7 clade (influenza A virus, H7 clade (strain not stated)).
Assay [5] has as its target HA0 protein from the H9 clade (influenza A virus, H9 clade (strain not stated)).

B1: MAB8 (antibody, V domains shown)
VH: EVQLVESGGGLVKPGGSLRLSCAASGFTFSTYTMSWVRQAPGQGLEWVSSITRTSSNIYYADSVEGRFTISRDNAKNSLYLQMHSLRVEDTAVYYCARISGVVGPVPFDYWGQGTLITVSS
VL: DIQMTQSPSSLSASVGDRVTITCRASQTISKYLNWYQQKPGRAPKLLIYSASSLQSGVPSRFTGSGSGTDFTLTITSLQPEDFATYYCQQSYRPSQITFGPGTKVDIKR
With B1, the values for the Kd in assay [1], in assay [2] and in assay [3] were 16000 pM, 200 pM and 9000 pM, respectively.

B2: MAB53 (antibody, V domains shown)
VH: QVQLVQSGAEVRKPGSSVKVSCKVSGGIIRKYAINWVRQAPGQGLEWMGGIIAIFNTANYAQKFQGRVTITADESTSTVYMELSSLRSEDTALYYCARGMNYYSDYFDYWGQGSLVTVSP
VL: EIVLTQSPGTLSLSPGERATLSCRASQSVRSNNLAWYQHKPGQAPRLLIFGASSRATGIPDRFSGSGSGTDFTLTISRLEPEDFAVYYCQQYGSSPALTFGGGTKVEIKR
As to B2, the Kd in assay [4] is 70 pM; in assay [2], 6000 pM; in assay [3], 60 pM; in assay [5], 30 pM.
